Data on nine sequences can be found in the DeepSol protein solubility set.

A short description of this data set: soluble on expression in E. coli; label from the status in PepcDB or PDB records.
Turning to “MARNVKGYASTLTWTITRNTLNFLWEQGFKMRINREEILDLMKNAPLKELGQRALRVKQRLHPENLTTFIVDRNINYTNICFVDCKFCAFKRTLKEKDAYVLSYEEIDQKIEELLAIGGTQILFQGGVHPQLKIDYYENLVSHIAQKFPTITIHGFSAVEIDYISKISKLSLKEVLERLKNAGLSSIPGAGAEVLSDRVRDVIAPKKLSSDRWIEVHRMAHLCGIKSTATMMFGSVDNEEDVVEHLQRVRDLQDETGGFRAFILWSFQPNNTPLKEEIPSIKKASSNRYLRYLACSRIFLDNIQNIQSSWVTQGSMIGQLALLFGANDLGSVMMEENVVKAAGTSFCMNEAGMIELIEDIGSVAAKRNTAYEILKRYPAKAKV”, the “soluble on expression in E. coli” value is reported as “not soluble”.

For the sequence “MAIYADNSYSIGNTPLVRLKHFGHNGNVVVKIEGRNPSYSVKCRIGANMVWQAEKDGTLTKGKEIVDATSGNTGIALAYVAAARGYKITLTMPETMSLERKRLLCGLGVNLVLTEGAKGMKGAIAKAEEIVASDPSRYVMLKQFENPANPQIHRETTGPEIWKDTDGKVDVVVAGVGTGGSITGISRAIKLDFGKQITSVAVEPVESPVISQTLAGEEVKPGPHKIQGIGAGFIPKNLDLSIIDRVETVDSDTALATARRLMAEEGILAGISSGAAVAAADRLAKLPEFADKLIVVILPSASERYLSTALFEGIEG”, the “soluble on expression in E. coli” value is given as “soluble”.

For “MKKVILFMAGILASMMLNAQSRWSVTPEAGLVVNKENEGTSVTLGFKAGAGVLYQLKEGVGKKPSFGLKSGVYILMQKGGYHPMSWGNISTGGGFSMDYEKTNVESTRYYLQLPVMAHWGFKLCDDVRLKLAVGPYVAVGIGGRTNAYVSSSKYNIDEETGVGQYEYRNDYYRFGTFKGKTVNEEFGFEASPRLDWGGTASVGIAVKRISFTVGYDLAWGKYNKEQNDLRIRNHMVSFTSGYSF”, the “soluble on expression in E. coli” value is on record as “not soluble”.

Turning to “MGSDKIHHHHHHMKQGSLFENSQRNTPLASRVRPQTLDQFVGQAHLLGPGKILRELIENDQVSSMIFWGPPGVGKTTLAEIIARQTQATFLSFSAVDSSISKIKKIMHQAEADREIGEQTIVFVDEIHRFNKAQQDAFLPYVERGSIILIGATTENPSFEVNSALLSRCKVFVLKALATADIDQLLRNALTNPAGFSGRVTIGDAELRAIAEFANGDARMALNTLEMAVLNGDKQGDQVTVTQADLKQLITQKFVLYDKTGEEHYNIISALHKSMRNSDPDAAIYWLTRMLSGGEDPLYVARRLVRFASEDIGLADTNALNVAINVFQACQFLGMPECNVHLVEAVTYLSLAPKSNAIYKASQAAQKDVQQTRDEPVPLQLRNAPTKLMKDLGYGADYQYAHESAAKLTTMQTLPEALRGHVYYEPTEQGREGRFKARLAEIKRWQQQHRD”, the “soluble on expression in E. coli” value is “not soluble”.

In the case of “MKAYTKYLTFNTKKRRELIRITDEVKKAVEESEVKEGLCLVSSMHLTSSVIIQDDEEGLHEDIWEWLEKLAPYRPDYKHHRTGEDNGDAHLKNLLTHLQVVLPITNGKLDLGPWQEIFYAEFDGQRPKRVVIKIIGE”, the “soluble on expression in E. coli” value is reported as “soluble”.

In the case of “MVSDISNSRILRRRSSTFTDPTNLLAVHELRSRILQDPAISVKHLSDDVHRIRHEDWWLDRFLGSVNYDVDIAYAIMLECLKWRRNFEVDRISLLSLKPLLDNQLMYLHGKDLQNRHMLWIMMNKYKNGDDGFEKLFTFWIERHYMEYKGCQPLTVFIDMTGTGLKNMSFDAMKFIIHSSKYYYPNSIESILIFENPAILNASWKVIGSWLESSAASQRHDLLTFVTKLSVTHYVPKSHLLEHQGGTDTFKFTMDELAKCLPPPPPPKPSPKLLQQRMHSIDDSTNNNNVKFDEESTTKRAPSLSRRSSRGPKSRKSHIPPSLRPLIENRVNAPSDDWSSNDFVSITPRDELRLEKLDGENDLLDVVLVKNQSSDTPIMFKFKTTSPEKFRVRPSSGIVQPGTTEIIRVYLQYGESTDTRGTKKSFCFLQWNRHQQTLKASLNSSNQQATRQNSNSNVDCQKI”, the “soluble on expression in E. coli” value is recorded as “not soluble”.

Turning to “GPLGSKLNDILHVYEKSKERELQSQLFNAWRNRFCFYTEECNIQAISKRNYQLEKMVLKKFRERLLEIVKSEE”, the “soluble on expression in E. coli” value is listed as “soluble”.

“MSLGAIVEVITIKNYSLKSENYEAEIDIPKIRGLKDKNLEQRLNSSFMEDGKRLYHQFQERMEKIQSSKNKGYKSLSLSYSVKNNSKKFLSIEMTKNEIEASSYVSKVHYTIDKKRQIVLTLPMLFKDDKYIKVISDNIKEQMREQMKKDSTKSYFIDEGHHHHHH”: the “soluble on expression in E. coli” value is “not soluble”.

Consider “MILGPDGKPIKKPETSEIARVLHTFSAFMKSLPNPDIILKKTGKTAEIFEEMKTDAHVWAELTKRKSGVLSKDWDILPASNDRRDLEIAAFVKETFERLNFDQDMRTKTCGKCSMPCSRAGTCTN”, for which the “soluble on expression in E. coli” value is on record as “not soluble”.
